{
  "source": "patent US20200247891A1",
  "about": "(University of California, published 2020)",
  "target": "αvβ8 integrin on β8-transfected SW480 cells and β8-transfected SNB-19 cells (UniProt P26012 43-769; P06756 31-1048)",
  "sequence (P26012 43-769, chain 1 of 2)": "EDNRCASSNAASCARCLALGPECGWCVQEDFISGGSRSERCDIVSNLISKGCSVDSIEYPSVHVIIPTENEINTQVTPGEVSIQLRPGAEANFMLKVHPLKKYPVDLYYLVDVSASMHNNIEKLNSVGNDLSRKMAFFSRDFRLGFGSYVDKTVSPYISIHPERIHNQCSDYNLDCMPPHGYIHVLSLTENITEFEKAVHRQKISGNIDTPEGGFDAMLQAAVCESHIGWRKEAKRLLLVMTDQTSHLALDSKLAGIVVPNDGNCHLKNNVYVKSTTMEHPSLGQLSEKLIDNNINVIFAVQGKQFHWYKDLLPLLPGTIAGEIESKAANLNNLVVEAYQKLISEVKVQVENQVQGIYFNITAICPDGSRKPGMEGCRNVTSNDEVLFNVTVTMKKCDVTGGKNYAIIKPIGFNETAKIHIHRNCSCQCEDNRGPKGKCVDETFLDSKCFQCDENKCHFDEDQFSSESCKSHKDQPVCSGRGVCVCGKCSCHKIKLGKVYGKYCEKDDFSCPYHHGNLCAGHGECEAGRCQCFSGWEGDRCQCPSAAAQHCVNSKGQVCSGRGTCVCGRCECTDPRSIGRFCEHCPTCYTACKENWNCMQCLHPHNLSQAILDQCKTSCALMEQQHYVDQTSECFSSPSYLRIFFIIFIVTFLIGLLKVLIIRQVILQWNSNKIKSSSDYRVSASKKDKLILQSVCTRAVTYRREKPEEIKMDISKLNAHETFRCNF",
  "sequence (P06756 31-1048, chain 2 of 2)": "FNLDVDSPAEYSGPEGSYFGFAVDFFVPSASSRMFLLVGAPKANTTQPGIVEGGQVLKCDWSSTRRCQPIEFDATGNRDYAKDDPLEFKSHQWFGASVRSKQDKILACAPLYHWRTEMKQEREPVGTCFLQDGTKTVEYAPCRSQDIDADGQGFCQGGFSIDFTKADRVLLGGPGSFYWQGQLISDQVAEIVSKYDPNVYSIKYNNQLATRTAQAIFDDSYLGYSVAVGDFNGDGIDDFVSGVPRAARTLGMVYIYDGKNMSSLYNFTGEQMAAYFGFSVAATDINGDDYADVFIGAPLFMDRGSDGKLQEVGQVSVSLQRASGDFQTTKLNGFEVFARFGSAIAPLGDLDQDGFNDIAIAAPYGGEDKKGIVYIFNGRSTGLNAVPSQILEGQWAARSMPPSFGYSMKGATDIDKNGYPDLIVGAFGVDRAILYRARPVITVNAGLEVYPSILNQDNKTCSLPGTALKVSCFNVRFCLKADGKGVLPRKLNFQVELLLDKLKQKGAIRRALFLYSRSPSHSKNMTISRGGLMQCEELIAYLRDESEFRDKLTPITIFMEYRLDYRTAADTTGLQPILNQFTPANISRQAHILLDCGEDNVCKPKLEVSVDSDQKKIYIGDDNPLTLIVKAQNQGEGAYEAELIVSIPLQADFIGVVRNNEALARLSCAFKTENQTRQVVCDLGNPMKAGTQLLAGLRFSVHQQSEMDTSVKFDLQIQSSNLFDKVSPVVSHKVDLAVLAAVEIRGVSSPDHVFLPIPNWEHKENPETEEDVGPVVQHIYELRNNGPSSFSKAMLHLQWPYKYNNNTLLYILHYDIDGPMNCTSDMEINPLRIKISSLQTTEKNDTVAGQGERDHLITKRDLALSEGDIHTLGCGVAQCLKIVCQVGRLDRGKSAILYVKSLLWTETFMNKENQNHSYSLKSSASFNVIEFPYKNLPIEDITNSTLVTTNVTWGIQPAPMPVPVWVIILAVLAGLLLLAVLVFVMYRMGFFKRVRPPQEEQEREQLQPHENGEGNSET",
  "assay": "cell-based or functional assay",
  "data": [
    {"binder": "ADWA-11 (antibody, V domains shown) VH: EVQLQQSGAELVRPGAFVKLSCKASGFNIKDYYMNWVLQRPEQGLEWIGWIDPDNGNTIYDPKFQGKASITADTSSNTAYLQLSSLTSEDTAVYYCARRLLMDYWGQGTSVTVSS VL: DIVMTQAAPSVPVTPGESVSISCRSTKSLLHFNGNTYLFWFLQRPGQSPQRLIYYMSNLASGVPDRFSGRGSGTDFTLRISRVEAEDVGVYYCMQSLEYPFTFGTGTKLEIK", "values": [
      {"measurement": "IC50 for inhibiting TGFβ activation", "result": "< 5", "unit": "nM"}
    ]}
  ]
}
